Consider 31 molecules from patent publication US20050196403A1.

The target of assay [1] is HLA-A*0301 (Human). Conditions: remark: other sources report otherwise.
The target in assay [2] is HLA-A*1101 (Human). As to conditions: remark: other sources report otherwise.
In assay [3] the target is HLA-A*0301 (Human). As to conditions: remark: other sources report otherwise. This is another data set of the same source.
In assay [4] the target is HLA-A*1101 (human). Put plainly: inhibition of radiolabeled probe peptide binding to purified HLA, gel filtration. As to conditions: remark: other sources report otherwise.
Assay [5] deals with HLA-A*0301 (Human). As to conditions: remark: other sources report otherwise. This is another data set of the same source.
Assay [6] has as its target HLA-A*3101 (Human). As to conditions: remark: other sources report otherwise.
The target of assay [7] is HLA-A*3301 (Human). Conditions: remark: other sources report otherwise.
Assay [8] has as its target HLA-A*6801 (Human). Conditions: remark: other sources report otherwise.
Assay [9] concerns the target HLA-A*1101 (human). Put plainly: competition with 125I probe peptide, purified HLA class I. Conditions: remark: other sources report otherwise.
Assay [10] deals with HLA-A*6801 (human). The assay is described as above. Conditions: remark: other sources report otherwise.
The target of assay [11] is HLA-A*2401 (human). Described as above.
Assay [12] concerns the target HLA-A*0203 (human). The assay is described as above. Conditions: remark: other sources report otherwise.
In assay [13] the target is HLA-A*0206 (human). Described as above. As to conditions: remark: other sources report otherwise.
Assay [14] concerns the target HLA-A*6802 (human). The description is as above. Conditions: remark: other sources report otherwise.
The target in assay [15] is HLA-A*3301 (human). Described as above. As to conditions: remark: other sources report otherwise.
Assay [16] concerns the target HLA-A*0203 (Human). Description: competition vs 125I probe, purified HLA. Conditions: remark: other sources report otherwise.
Assay [17] has as its target HLA-A*0206 (Human). Put plainly: competition vs 125I probe, purified HLA. Conditions: remark: other sources report otherwise.
Assay [18] concerns the target HLA-A*0301 (human). Put plainly: competition with 125I probe peptide, purified HLA class I. Conditions: remark: other sources report otherwise.
The target in assay [19] is HLA-A*3101 (human). The assay is described as above. Conditions: remark: other sources report otherwise.

Where two headings read alike, the source gives them in different places. Non-standard residues stand in square brackets, D forms with d. No end group written: not given here. Abu = CC[C@H](N)C(=O)O

Regarding SSCMGGMNR [p53 peptide … (position 240, 9 amino acids)], the binding affinity ratio (IC50 of standard peptide/IC50 of test peptide) in assay [1] was 0.02; in [2], 1.4; in assay [3], 0.02.

As to VTCTYSPALNK [p53 peptide … (position 122)], the binding affinity ratio to standard peptide in assay [4] was found to be 0.12.

As for GFLHSGTAK [p53 peptide … (position 112)], the binding affinity ratio to standard peptide in [4] worked out at 0.0001. Further, the binding affinity ratio (IC50 of standard peptide/IC50 of test peptide) in [5] was determined as 0.0014.

Consider TCTYSPALNK [p53 peptide … (position 123)], for which the binding affinity ratio to standard peptide in [4] stood at 0.012.

As for RTEEENLRK [p53 peptide … (position 283, 9 amino acids)], the binding affinity ratio (IC50 of standard peptide/IC50 of test peptide) in [1] was determined as 0.0015; in assay [2] it was 0.091; in [6], 0.0002; in [7], 0.0006; in [8], 0.0001.

Regarding RTEEENLRKK, the binding affinity ratio (IC50 of standard peptide/IC50 of test peptide) in [5] was 3.3.

As for SSCMGGMNRR [p53 peptide … (position 240, 10 amino acids)], the results for the binding affinity ratio (IC50 of standard peptide/IC50 of test peptide) in assay [1], in [2] and in assay [3] were 0.0001, 0.086 and 0.0001, respectively.

Turning to TSSSPQPK [p53 peptide TSSSPQPK (position 312, 8 amino acids)], in [2], the binding affinity ratio (IC50 of standard peptide/IC50 of test peptide) is 0.0019.

In the case of TCTYSPALNK [p53 peptide … (position 123, 10 amino acids)], in assay [3], the binding affinity ratio (IC50 of standard peptide/IC50 of test peptide) worked out at 0.0056.

TSRHKKLMFK [p53 peptide … (position 377)]: in assay [4], the binding affinity ratio to standard peptide came to 0.0052.

Regarding TSSSPQPK [p53 peptide TSSSPQPK (position 312)], the binding affinity ratio to standard peptide in assay [4] was 0.0019.

Consider YGFRLGFLH [p53 peptide … (position 107)], for which, in assay [4], the binding affinity ratio to standard peptide amounted to 0.26.

For RVRAMAIYK [p53 peptide … (position 156, 9 amino acids)], the binding affinity ratio (IC50 of standard peptide/IC50 of test peptide) in assay [1] was determined as 1.5; in [2], 0.73; in assay [6] it was 3.7; in assay [7], 0.0063; in assay [8], 0.003.

As to VTCTYSPALNK [p53 peptide … (position 122, 11 amino acids)], the binding affinity ratio (IC50 of standard peptide/IC50 of test peptide) was found to be 0.07 in assay [1], 0.12 in assay [2], 0.0068 in assay [8] and 0.07 in assay [3].

B1: 1371.16 BVYSPALNK p53.124.B1V2 (peptide)
peptide: BVYSPALNK
modifications: here or on the partner: B at position 1 is alpha-amino butyric acid (in place of cysteine)
For B1, the values for the IC50 in assay [9] and in assay [10] were 12.8 nM and 500 nM, respectively.

For the molecule TYQGSYGFRF [57.0096 … p53.102.F10], in [11], the IC50 – broadly, the concentration at which inhibition is half-maximal – turned out to be 30 nM.

As for KMFCQLAKT [… p53.132], the IC50 in [12] came out at 19.6 nM; in assay [13], 92.5 nM.

As for RTEEENLRK, in [4], the binding affinity ratio to standard peptide is 0.091. In addition, the binding affinity ratio (IC50 of standard peptide/IC50 of test peptide) in assay [5] amounted to 0.0015.

FLHSGTAKSV [1329.09 … p53.113]: the IC50 in assay [14] is 80000 nM.

With RVRAMAIYK [p53 peptide … (position 156)], the binding affinity ratio to standard peptide in assay [4] came to 0.73. Besides, the binding affinity ratio (IC50 of standard peptide/IC50 of test peptide) in assay [5] stood at 1.5.

Consider LGFLHSGTAK [p53 peptide … (position 111)], for which the binding affinity ratio to standard peptide in assay [4] came out at 0.0002. Also, the binding affinity ratio (IC50 of standard peptide/IC50 of test peptide) in [5] was 0.0001.

With SSCMGGMNR, the binding affinity ratio to standard peptide in assay [4] came to 1.4.

Regarding SSCMGGMNRR, the binding affinity ratio to standard peptide in assay [4] was 0.086.

Consider TSRHKKLMFK [p53 peptide … (position 377, 10 amino acids)], for which the binding affinity ratio (IC50 of standard peptide/IC50 of test peptide) is 0.05 in assay [1], 0.0052 in [2] and 0.05 in [3].

Take KVYQGSYGFR [1371.14 … p53.101.V2]: in [15], the IC50 was found to be 10000 nM.

In the case of KMF[Abu]QLAKV [p53.132B4V9 KMFBQLAKV], the IC50 in assay [16] was 9.1 nM; in assay [17] it was 37 nM.

In assay [17], RMPEAAPPVA [p53.65 … (10-mer)] had an IC50 of 841 nM. That is a sub-micromolar value.

Regarding SV[Abu]MGGMNRK [1371.25 SVBMGGMNRK p53.240.V2B3K10], the IC50 in [9] worked out at 75 nM; in assay [10], 17 nM.

For KGQSTSRHK [p53 peptide … (position 373)], the binding affinity ratio to standard peptide in assay [4] was found to be 0.0002. Besides, in assay [5], the binding affinity ratio (IC50 of standard peptide/IC50 of test peptide) was 0.0014.

As to SV[Abu]MGGMNK [1371.24 SVBMGGMNK p53.240.V2B3K9], the IC50 was 12.5 nM in assay [18], 17.1 nM in assay [9], 9000 nM in [19] and 29.6 nM in [10].

Regarding RTEEENLRKK [p53 peptide … (position 283, 10 amino acids)], the binding affinity ratio (IC50 of standard peptide/IC50 of test peptide) in assay [1] is 3.3; in assay [2], 0.008.
